Assay results published in PMC9728385.

Experiments:
[1] = target: TtCST Ctc1 R395E/Y445A/F473A (Tetrahymena, UniProt A0PGB2;Q6JXI5;D2CVN7;D2CVN8 1-622;1-373;1-164;1-422, R395E;Y445A;F473A); test: EMSA
TtCST Ctc1 F264A/Y268A = TtCST Ctc1 F264A/Y268A (Tetrahymena, UniProt A0PGB2;Q6JXI5;D2CVN7;D2CVN8 1-622;1-373;1-164;1-422, F264A;Y268A); test: EMSA
TtCST Ctc1 F264A/Y268A, sequence (A0PGB2 whole entry F264A/Y268A, chain 1 of 4): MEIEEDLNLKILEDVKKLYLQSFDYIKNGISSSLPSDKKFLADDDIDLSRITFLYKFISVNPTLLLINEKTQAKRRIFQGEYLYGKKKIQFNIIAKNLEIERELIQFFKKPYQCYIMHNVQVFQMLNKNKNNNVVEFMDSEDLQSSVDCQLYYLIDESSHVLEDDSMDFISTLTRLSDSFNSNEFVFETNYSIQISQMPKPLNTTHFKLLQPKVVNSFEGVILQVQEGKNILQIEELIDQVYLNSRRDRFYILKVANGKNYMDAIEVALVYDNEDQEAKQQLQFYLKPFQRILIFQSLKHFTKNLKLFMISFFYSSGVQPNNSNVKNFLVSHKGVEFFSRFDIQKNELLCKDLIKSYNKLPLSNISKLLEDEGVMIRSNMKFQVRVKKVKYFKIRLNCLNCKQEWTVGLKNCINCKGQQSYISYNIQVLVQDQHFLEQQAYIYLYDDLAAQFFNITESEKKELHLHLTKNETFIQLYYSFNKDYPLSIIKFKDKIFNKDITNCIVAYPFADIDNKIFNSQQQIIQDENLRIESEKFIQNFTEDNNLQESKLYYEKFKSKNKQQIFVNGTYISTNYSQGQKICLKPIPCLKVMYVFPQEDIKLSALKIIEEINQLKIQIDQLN
TtCST Ctc1 F264A/Y268A, sequence (Q6JXI5 whole entry, chain 2 of 4): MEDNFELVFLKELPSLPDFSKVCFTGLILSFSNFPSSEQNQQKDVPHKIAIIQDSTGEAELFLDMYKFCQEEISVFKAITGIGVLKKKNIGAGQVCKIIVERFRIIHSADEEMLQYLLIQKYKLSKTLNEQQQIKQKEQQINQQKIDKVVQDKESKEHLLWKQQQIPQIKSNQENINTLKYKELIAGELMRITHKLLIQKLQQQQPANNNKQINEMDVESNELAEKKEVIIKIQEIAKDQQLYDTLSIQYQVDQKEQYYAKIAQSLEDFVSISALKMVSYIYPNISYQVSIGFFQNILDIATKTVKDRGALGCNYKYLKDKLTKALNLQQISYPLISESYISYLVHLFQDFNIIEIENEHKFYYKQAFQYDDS
TtCST Ctc1 F264A/Y268A, sequence (D2CVN7 whole entry, chain 3 of 4): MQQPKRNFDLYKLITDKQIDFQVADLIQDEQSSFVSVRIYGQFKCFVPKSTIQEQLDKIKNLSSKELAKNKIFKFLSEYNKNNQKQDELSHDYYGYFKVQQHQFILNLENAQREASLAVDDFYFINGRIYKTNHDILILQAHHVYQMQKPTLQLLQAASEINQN
TtCST Ctc1 F264A/Y268A, sequence (D2CVN8 whole entry, chain 4 of 4): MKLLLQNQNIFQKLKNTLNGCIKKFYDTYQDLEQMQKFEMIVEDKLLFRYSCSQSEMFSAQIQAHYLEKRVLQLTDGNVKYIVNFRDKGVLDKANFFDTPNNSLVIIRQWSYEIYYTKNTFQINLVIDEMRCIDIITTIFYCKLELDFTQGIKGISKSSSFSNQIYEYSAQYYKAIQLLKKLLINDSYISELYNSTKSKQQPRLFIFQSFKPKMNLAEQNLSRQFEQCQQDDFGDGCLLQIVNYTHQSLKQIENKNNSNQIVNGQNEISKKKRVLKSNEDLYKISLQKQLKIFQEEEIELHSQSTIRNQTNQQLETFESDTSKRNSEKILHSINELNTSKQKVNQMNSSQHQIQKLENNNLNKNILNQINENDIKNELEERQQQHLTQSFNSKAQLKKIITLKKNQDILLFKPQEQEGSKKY

TtCST Ctc1 R395E/Y445A/F473A, sequence (A0PGB2 whole entry R395E/Y445A/F473A, chain 1 of 4): as the sequence (A0PGB2 whole entry F264A/Y268A, chain 1 of 4) above, with A264F, A268Y, R395E, Y445A, F473A counted along it
TtCST Ctc1 R395E/Y445A/F473A, sequence (Q6JXI5 whole entry, chain 2 of 4): as the sequence (Q6JXI5 whole entry, chain 2 of 4) above
TtCST Ctc1 R395E/Y445A/F473A, sequence (D2CVN7 whole entry, chain 3 of 4): as the sequence (D2CVN7 whole entry, chain 3 of 4) above
TtCST Ctc1 R395E/Y445A/F473A, sequence (D2CVN8 whole entry, chain 4 of 4): as the sequence (D2CVN8 whole entry, chain 4 of 4) above

GTTGGGGTTGGGGTTGGGGTTGGGGTTGGG (ssDNA) [d(GTTGGG)5]
Kd [1]: 520 nM | binding signal (TtCST Ctc1 F264A/Y268A): 1.2 fold weaker Kd than WT
